The target of one assay is T1, human CCR8 (human, UniProt P51685 1-355).
T1 construct: whole, on cells; construct used for the overexpressing cell lines is not described; also called hCCR8
The assay is described as follows: FACS, CHO-K1-hCCR8 cells. As for the experimental part:
(§1) Cells overexpressing human CCR8 were digested with pancreatin, counted and resuspended to a cell density of 1E6 cells/mL. The cell suspension was added to a 96-well V-bottom plate at 100 μL/well and centrifuged at 300 g for 5 min, and the supernatant was discarded. The anti-CCR8 antibodies provided herein was used as a primary antibody and diluted in a 5-fold gradient with an FACS buffer (DPBS containing 2% FBS) from 200 nM. The diluted primary antibody was added at 100 μL/well to resuspend the cells, and the mixture was incubated at 4° C. for 1 h. The plate was washed twice with DPBS and centrifuged at 300×g for 5 min, and the supernatant was discarded. The secondary antibody diluted in a 1:1000 ratio with an FACS buffer was added at 100 μL/well to suspend the cells, and the mixture was incubated at 4° C. for 40 min. The plate was washed twice with DPBS and centrifuged at 300×g for 5 min, and the supernatant was discarded. DPBS was added at 200 μL/well to suspend the cells, and the mixture was loaded on an FACS machine for analysis.

The next assay concerns the target T2, cynomolgus monkey CCR8 (cynomolgus monkey, UniProt G7NYJ2 1-355).
T2 construct: whole, on cells; also called CynoCCR8
The assay is described as follows: FACS, CHO-K1-CynoCCR8 cells. As for the experimental part:
as §1, with “cynomolgus monkey CCR8, CHO-K1-CynoCCR8,” for “human CCR8”

Positions count from the first letter of the chain named.

T2 sequence (G7NYJ2 entry or part of it): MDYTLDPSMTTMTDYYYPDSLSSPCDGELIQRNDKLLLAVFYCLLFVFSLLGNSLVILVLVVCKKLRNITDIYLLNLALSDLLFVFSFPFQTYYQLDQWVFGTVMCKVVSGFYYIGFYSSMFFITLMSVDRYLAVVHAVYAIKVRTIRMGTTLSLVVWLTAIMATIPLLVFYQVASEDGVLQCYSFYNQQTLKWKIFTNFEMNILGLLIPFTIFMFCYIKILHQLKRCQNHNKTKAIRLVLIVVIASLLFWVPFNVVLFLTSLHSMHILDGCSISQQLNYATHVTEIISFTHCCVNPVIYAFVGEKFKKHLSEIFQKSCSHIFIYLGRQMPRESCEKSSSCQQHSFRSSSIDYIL
T1 sequence (P51685 whole entry): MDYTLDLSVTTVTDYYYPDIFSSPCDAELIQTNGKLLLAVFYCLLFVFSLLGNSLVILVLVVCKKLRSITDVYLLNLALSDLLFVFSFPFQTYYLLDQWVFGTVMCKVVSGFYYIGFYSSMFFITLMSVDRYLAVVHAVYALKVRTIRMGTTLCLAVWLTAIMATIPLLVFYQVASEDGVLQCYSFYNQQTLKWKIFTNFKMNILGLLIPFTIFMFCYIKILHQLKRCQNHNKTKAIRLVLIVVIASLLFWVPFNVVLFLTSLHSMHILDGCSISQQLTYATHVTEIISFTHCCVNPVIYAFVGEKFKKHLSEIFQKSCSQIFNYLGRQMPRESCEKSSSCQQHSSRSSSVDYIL

B1: PR004338 (antibody, human IgG1, kappa, V domains shown)
VH: EVQLVESGGGLVQPGGSLKLSCAASGFTFNTYAMNWVRQASGKGLEWVGRIRSKSNNYATYYADSVKDRFTISRDDSKSTLYLQMNSLKTEDTAVYYCVRGKENGNYYAMDYWGQGTTVTVSS
VL: DIVMTQAAPSVPVTPGESVSISCRSSKSLLHSNGKIYLYWFLQRPGQSPQLLIYRMSNLASGVPDRFSGSGSGTAFTLRISRVEAEDVGVYYCMQHLEYPLTFGAGTKLEIKR
notes: heavy-chain semi-humanized variant of PR004128, IgG1 with DE mutation
On to B1, for which the EC50 with human CCR8 is 0.72 nM; with cynomolgus monkey CCR8 it was 4.21 nM.

B2: PR004333 (antibody, human IgG1, kappa, V domains shown)
VH: B1 VH with K19R, S41P, G49S, K89R, T90A, Y112F
VL: B1 VL
notes: as for B1
As to B2, the EC50 in the assay with human CCR8 was determined as 0.91 nM; with cynomolgus monkey CCR8 it was 4.97 nM.

B3: PR004335 (antibody, human IgG1, kappa, V domains shown)
VH: B1 VH with K19R, S41P, G49S, K89R, T90A
VL: B1 VL
notes: as for B1
Take B3: the EC50 with human CCR8 amounted to 0.97 nM; with cynomolgus monkey CCR8, 3.52 nM.

B4: PR004343 (antibody, human IgG1, kappa, V domains shown)
VH: B1 VH with G15K, S41P, G49A, K78Q, T80M, S87N, V95M, Y112F, T118S, S123A
VL: DIVMTQSPLSLPVTLGQPASISCRSSKSLLHSNGKIYLYWFQQRPGQSPRLLIYRMSNLASGVPDRFSGSGSGTDFTLKISRVEAEDVGVYYCMQHLEYPLTFGQGTKLEIKR
notes: light-chain semi-humanized variant of PR004128, IgG1 with DE mutation
Take B4: the EC50 with human CCR8 amounted to 1.08 nM; in the assay with cynomolgus monkey CCR8, 6.38 nM.

B5: PR004334 (antibody, human IgG1, kappa, V domains shown)
VH: B1 VH with K19R, Y32N, S41P, G49S, K89R, T90A, Y112F
VL: B1 VL
notes: as for B1
With B5, the EC50 with human CCR8 was determined as 1.33 nM; with cynomolgus monkey CCR8 it was 7.5 nM.

B6: PR004344 (antibody, human IgG1, kappa, V domains shown)
VH: B1 VH with G15K, S41P, G49A, K78Q, T80M, S87N, V95M, Y112F, T118S, S123A
VL: B4 VL with K35N, I36T
notes: as for B4
Turning to B6, the EC50 in the assay with human CCR8 was 1 nM; with cynomolgus monkey CCR8, 3.51 nM.

B7: PR004345 (antibody, human IgG1, kappa, V domains shown)
VH: B1 VH with G15K, S41P, G49A, K78Q, T80M, S87N, V95M, Y112F, T118S, S123A
VL: B4 VL with S26N, K35N, I36T
notes: as for B4
On to B7, for which the EC50 with human CCR8 worked out at 1.12 nM; with cynomolgus monkey CCR8, 5.96 nM.

B8: PR004331 (antibody, human IgG1, kappa, V domains shown)
VH: B1 VH with Q13K, K19R, Y32N, S41P, Y112F
VL: B1 VL
notes: as for B1
On to B8, for which the concentration giving a half-maximal response (EC50) with human CCR8 was determined as 1.03 nM; with cynomolgus monkey CCR8, 6.99 nM.

B9: PR004330 (antibody, human IgG1, kappa, V domains shown)
VH: B1 VH with Q13K, K19R, S41P, Y112F
VL: B1 VL
notes: as for B1
For the molecule B9, the EC50 with human CCR8 came to 0.85 nM; with cynomolgus monkey CCR8, 3.96 nM.

B10: PR004332 (antibody, human IgG1, kappa, V domains shown)
VH: B1 VH with Q13K, K19R, S41P
VL: B1 VL
notes: as for B1
B10: the EC50 in the assay with human CCR8 came to 0.73 nM; with cynomolgus monkey CCR8 it was 2.75 nM.

B11: PR004340 (antibody, human IgG1, kappa, V domains shown)
VH: B1 VH with G15K, S41P, G49A, K78Q, T80M, S87N, V95M, Y112F, T118S, S123A
VL: B4 VL with L15P, Q17E, K35N, I36T, Q42L, R44K, R50Q
notes: as for B4
For B11, the EC50 with human CCR8 is 1.06 nM; with cynomolgus monkey CCR8, 5.35 nM.

B12: PR004339 (antibody, human IgG1, kappa, V domains shown)
VH: B1 VH with G15K, S41P, G49A, K78Q, T80M, S87N, V95M, Y112F, T118S, S123A
VL: B4 VL with L15P, Q17E, Q42L, R44K, R50Q
notes: as for B4
Turning to B12, the results for the EC50 with human CCR8 and with cynomolgus monkey CCR8 were 0.95 nM and 9.58 nM, respectively.

Values taken from patent US20240132603A1 (HARBOUR BIOMED US, published 2024).
